Laboratory results as given in the nanobody polyreactivity screen of Harvey et al. (2022).

Test: yeast display, Sf9 membrane polyspecificity reagent, FACS + sequencing; frameworks hold sequencing errors
Summary of the method: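 Nanobodies from a synthetic yeast display library (Saccharomyces cerevisiae BJ5465), induced 36–48 hours with galactose, were stained 1 hour at 4 °C with 10% biotinylated, detergent-solubilized Sf9 membrane reagent, enriched on streptavidin microbeads, then FACS-sorted. Anti-HA (expression) and streptavidin (reagent binding) fluorescence set low and high (top ~1%) gates. Polyreactivity labels come from the gate of origin. Genes were colony-PCR amplified, MiSeq 2 × 250 sequenced and filtered by CDR length.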

Row | Sequence | polyreactivity (PSR sort gate)
1 | QVQLVETGGGLVQAGGSLRLSCAPSGRTLSYYAMGWYIQAPGKERELVAAIRHSAGSTYYADSVKVRFTISRDNAKNTVYLQMISLKPEDTAVYYCAKKYYGHRYPSIYDYWGQGTQVTVSS | high polyreactivity
2 | QVQLVETGGGLVQAGGSLRLSCAASGSTFWYYGMGWYRQAPGKERELVAAISRRGGSTYYADSVKGRFTFSRDNAKNTVYLQMNSLKPEDTAVYYCAADRLIGDGENYYWGQGTQVTVSS | high polyreactivity
3 | QVQLVESGGGLVQAGGSLRLSCAATGTTFGYYTMGWYRQAPGKERELDAAISWSGSSTYYADSVKGRFTISRDTAKNTVYLQMNSLKPEDTAVYYCNARGGARAWYFAYKYWGQGTQVTVSS | high polyreactivity
4 | QVQLEDAGGGLVQAGGSLRLSCAASGRIIGWYTIGRYRQAPGKERELVATSSSSGASTYYADSVKGRFTISRDNAKNSVYFQMNSLKPEDTGVYYCAAQYYPYSFAHRYGYWGQGSQVTVSS | high polyreactivity
5 | QVQLVESGGGLVQAAGSLRLSCAASGFIFIYNAMGWYRQAPGKERELVAAITGSDGGTFYADSVKGRFTFSRDYAKNTVYLQINSLKPEDTAVYYCHADNGSRQSRDGYESWGQGTQVTVSS | low polyreactivity
6 | QVQLVESGAGLVQAGGSLRLSCAPSGRIFTPYAMGWYRQAPGKERELVAVIRDGSTYYADSVKGRFTISRDNSKNTVYLQMNSLKPEDTAVYYCRYDIWVWWSGAYDYWGQGTQVTVSS | low polyreactivity
7 | QVQLVESGGGLVQDGGSLRLSCAASGRIFGYYAMGGYRQAPGKERELVASINGGGSTNYADSVKGRFTISRDNAKTTVYLQMNSLKPEDTAVYDCAAAQWAYWLLYNYWGHGTQVTVSS | low polyreactivity
8 | QVQLVESGGGLVQAGGSLRLSCAASGSTFKAYAMGWYRQAPGKEREFVAAITRSGGRTYYADSVKGRFTISRDNAKNTVYLQMNSLKPEDTAVYYCAAYTWYAWVSDPTNEYWGQGTQVTVSS | low polyreactivity
9 | QVQLVESGGGLVQAGGSLRLSCAASGSIFDNYAMGWYRPAPGKERELVAVISSGGVSTSYADSVKGRFTISRDNAKNTVYLQMNSLKTEDTAVYYCAADGYYIGPYDYWGQGTQVNVSS | low polyreactivity
10 | QVQLVESGGGLVQAGGILRLSCAASGFTFLAYAMGWYRQAHGKERELVAAISAYSGRTRYADSVKGRFTISRDNAKNTVYLQMNSLKPEDTAVNYCAARYRGTYRRDYWGQGTQVTVSS | high polyreactivity
11 | QVQLVESGGGLVQAGGSLRLSCAASGNTFRRYAMGWYRQAPGKERELVAAISYRGGSTYYADSVKGRFTISRDNAQNTVYLQMNSLKPEDTAVSYCNARFATSVLYDYWGQGTQVTVSS | high polyreactivity
12 | QVQLVESGGGLVQAGGSLRLSCAASGRTFLPNAMGWYRQAPGKERELVAVITSGGSTNYADSVKGRFTISRDNAKNTVYLQMKSLKPEDTAVYYCAARRWSSSQGHWGKSAGYGYWGQGTQVTVSS | low polyreactivity
13 | QVQLVESGGGLVQAGGSLRLSCAASGRTFQNNAMGWYRQAPGKERELVAAISRSGASTYYADSVKGRFTISRDNAKNTVYLQMNSLKPEATAVYYCAAVTKLGYPPVNHLEDDYWGQGTQVTVSS | low polyreactivity
14 | QVQLVESGGVLVQAGGSLRLSCAASGYIFSLNGMGWYRQAPGKERELVAAITVSGGRTYYADSVKGRFTISRDNAKNTVYLQMNSLKPEDTAVYYCAKRGKYSYWPYYKYDYWGQGTQVTVSS | high polyreactivity
15 | QDQLVESGGGLVQAGGSLRLSCAASGSIFRYVMGWYRQAPGNERELVAAISIRGGSTYYADSVKGRFTISRDNAKNTVFFQMHSLKPEDTAVYYCAADRYRLGVKYDYWGQGTQVTVSS | high polyreactivity
16 | QVQLVESGGGLVQAGGSLRLNCAASGLIFSNNAMGWYRQAHRKERDLVAAITSSGSRTYYADSVKGRFTISRDNAQITVYLQMNSLKPEDTAVYYCAAYEVPYQRRYGYWGQGTQVTVSS | high polyreactivity
17 | QVQLVESGGGLVQAGCSLRLSWAASGRTFFSNAMGWYRQAPGKERELVAAISNGDNTYYADSVKGRFTISRDNAKNTVYLQMNSLKPEDTAVYYCAKDYRWVWRKYGYWGQGTQVTVSS | low polyreactivity
18 | QVQLVESGGGLVQAGGSLRLSCAASGRNFYYNAMGWYRQAPGKEREFVAGISYGGTTTYYADSVKGRFTISRDNAKNTVYLLMNSLKPEDTAVYYCAAGYTWRQSWYPFDYWGQGTQVTVSS | high polyreactivity
19 | QVQLVESGGGLVQAGGSLRLSCAASGLIFWRYDMGWYRQAPGKERELVAVITSGGNTYYADSVKGRFTISRDNAKNTVYLQMNSLKPEDTAVYYCNADTWRDDYDYWGQGTQVTVSS | low polyreactivity
20 | QDQLVESGGGLVQAGGSLRLSCAASGNTFVSNAMGWYRQAPGKERELVAAIDSGGSTNYADSVKGRFTISRDNAKYTVYLQMNSLKPEDTAVYYCNRTSVYYYYWGQGTQVTVSS | low polyreactivity
21 | QVQLVESGGGLVQAGGSLRLSCAASGSIFGTYAMGWYRQAPGKERELVAAITGSGGRTYYADSVKGRFTISRDNAKNTVYLQLNSLKPEDTAVYYCNKVVYVRSYPPRYDYWGQGTQVTVSS | high polyreactivity
22 | QVQLVESGGGLVQAGGSLRLSCAASGSTFYAYAMGSYRQSPGKERELVAVITSGGTTKYADSVKGRFTISRDNAKNTVYLQLNSLKPEDTAVYYCNVAGRDYAVRWGSFVFWGQGTQVTVSS | low polyreactivity

Row | Sequence | polyreactivity (PSR sort gate)
23 | QVQLVESGGGLVQAGGSLRLSCAASGSTFQRYAMGWYRQAPGKERELVAAINKSGGTTYYADSVKGRFTISRDNAKNTVYLLMNSLKPEDTAVYYCATDNPVVYQPGNMDYWGQGTQVTVSS | low polyreactivity
24 | QVQLVESGGGLVQAGGSLRLSCAASGFIFLGNAMGWYRQAPGKERELVAAISSGGSTYSDSVKGRFTISRDNAKHTVYLQMNSLKPEDTAVYYCAADSFIPPYDHWGQGTQVTVSS | low polyreactivity
25 | QVQLVESGGGLVQAGGSLRLSCSASGITFKRYAMGWYRQAPGTERELVAAITISACSTYYADSVKGRFTNSRDIAKNTVYLQMNSLKPEVTAVYYCAAVSYGSWYYYWGQGTHVTVSS | high polyreactivity
26 | QVQLEESGGGLVQAGGSLRLSCAASGRIFIAYTMGWYRQAPGKERELVAAITWNGGSTYYADSVKGRFTISRDNAMNTVYLQMNSLKPEDTAVYYWVLVSRPGPKPAREMDYWGQGTQVTVSS | low polyreactivity
27 | QVQLVESGGGLVHAGGSLRLICASSGFIFWAYAMGWYRQAPGKERELVAAISNNGVSTYYADSVKGRFTISRDIAKNTVYLQMNSLIPEDTAVYYCGATGVRSKRLASQWKLDYWGQGTQVTVST | high polyreactivity
28 | QVQLVESGGGLDQAGGSLRLSCASSGFTFGRYAMGWYRQAPGKERELVDTITRSGVNTYYADSVKGRFTISRDNAKNTVYLQMNSLKPEDTAVSYCNVRYPLATYRLPAGEFDYWGQGTQVTVSS | high polyreactivity
29 | QVQLVESGGGLVQAGGSLRLSCAASGSTFWYAMGWYRQAPGKERELVAAITARGGRTYYADSVKGRFTISRDNAKHTVYLQLISLKPEDTAVYYCARLSYAGGQWIIGKYDYWGQGTQVTVSS | high polyreactivity
30 | QVQLVESGGGLVQAGGSLRLSCAASGLIFFSYAMGWYRQAPGKERELVAAISRRGGRTYYADSVKGRFTISRDNAKNTVYLQMNSLKPEDTAASYCATYVASHRGDRTYDHWGQCTQVTVSS | low polyreactivity
31 | QVHLVESGGGLVQAGGSLRLSCAASGRIFGVYAMGWYRQAPGKERELVAVISWSGTSTYYADSVKGRFTISRDYAKNTVYLQMNSLKPEDTAVYYCAADYIGITDYYAIVVYLGYDSWGQGTQVTVSS | high polyreactivity
32 | QVQLVESGGGLVQAGGSLRLSCAASGRTFWYYAMGWYRQAPGKERELVAAITYRGGSTYYADSVKGRFTISRDNVKNTVYLQMNSLKPEDTAVYYCARRVDSYYGHTRYYYWGQGTQVTVSS | high polyreactivity
33 | QVQLVESGGGLVQAGGSLRLSCAASGRTFYYYAMGWYRQAPGKERELVAAIRWRGGRTYADSVKGRFTISRDNAKNTVYLQMNSLKQEDTAVYYCNAGFHYPSTYWIYYSGGNYWGQGTQVTVSS | high polyreactivity
34 | QVQLVESGGGLVQAGGSLRLSCAAYGSIFYFNAMGRYRQAPGKERELVASITSGGSTNYADSVKGRFTISRDNAKNTVYLQMNSLKPEETEVYYCNARFPYLSRWLVRGLASYDYWGQGTQVTVSS | low polyreactivity
35 | QVQLVESGGGLVQAGGSLRLSCAASGSTFGFNAMGWYRQAPGKERELVAAIDGSAGSTYYADSVKGRFTISRDNAKNTVYLQMNSLKPEDTAVYYCAADIYWFIEYEYWGQGTQVTVSS | low polyreactivity
36 | QVQLEESGGGLVQAGGSLRLSCAASGSTVWANAMGWYRPAPGKERELVAAITSTGITYYADSVKGRFTISRDNAKNTVYLQMNSLTPEDTAVYYCAASFPGAGYGMDYWGQGTQVTVSS | low polyreactivity
37 | QVQLLESGGGLVQAGGSLRISCAASGSTLRTNAMGWYRQAPGKERELVAAISTRGSSTYYADSVKGRFTISRDNSKNTVYLQMNSLKPEDTAVYYCAKDGVWYYSGTGMDYWGQGTQVTVSS | low polyreactivity
38 | QVQLVESGGGLVQAGGSLRLSCAASGITIVRYAMGWYRQAPGKERELVAAINRSGGSTYYADSVKGRFTISRDNAKNTVYLQMNSLKPEDTAVYYCAARLYGKYDPPGYYYWGQVTQVTVSS | high polyreactivity
39 | QVQLVESGGGLVQAGGSLRLSCAASGIIFRGYVMGWYRQAPGKERELVAAISTSGGRTSYADSVKGRFTISRDNAKNTVYLQMNSLKPEDTAVYYCAARPLYSYSQWGYGYWGQGTQVTVSS | high polyreactivity
40 | QVQLVESGGGLVQAGGSLRLSCAASGAIFRGYAMGWYRQAPGKERELVATITRRCGSTYYADSVKGRFTISRDNAKNTVYLQMNSLKPEDTAVYYCNARLTFLSSWLGKLQWGYDYWGQGTQVTVSS | low polyreactivity
41 | QVQLVESGGGLVQAGGSLRLSCAASGFTFPSNAMGWYRQAPGKERELYAAISSTDSTNYADSVKGRFTISRDNAKNTFYLQMNSLKPEDTAVYYCAKRYPRYRYNTRGNDYWGQGSQVTVSS | low polyreactivity
42 | QVQLVESGGGLVQAGGSLRLSCAASGYTFWYNAMGWYIPAPGKERELVAAIRSSGARTYYADSVKGRFTISRDNAKNTVYLQMNSLKPEDTAVYYCAASLRSGGRSHYYWGQGTQVTVSS | high polyreactivity
43 | QVQLVESGGGLVQAGGSLRLSCAASGRIFSYNAMGWYRQAPGKERELVARINWSSGRTYYADSVKGRFTISRDNAKNTVYLQMNSLKPEDTAVYYCNRVSRGPVGGYYWGQGTQVTVSS | high polyreactivity
